The labels stand for the following.
B1: Compound No. 3 (peptide)
peptide: Propionyl-[dR][Pen]QTWQ[Pen][AEF][2Nal][Thp]EN[αMeF]-NH2
modifications: disulfide 2-7
SMILES: CCC(=O)N[C@H](CCCNC(=N)N)C(=O)N[C@@H]1C(=O)N[C@@H](CCC(N)=O)C(=O)N[C@@H]([C@@H](C)O)C(=O)N[C@@H](Cc2c[nH]c3ccccc23)C(=O)N[C@@H](CCC(N)=O)C(=O)N[C@H](C(=O)N[C@@H](Cc2ccc(OCCN)cc2)C(=O)N[C@@H](Cc2ccc3ccccc3c2)C(=O)NC2(C(=O)N[C@@H](CCC(=O)O)C(=O)N[C@@H](CC(N)=O)C(=O)N[C@@](C)(Cc3ccccc3)C(N)=O)CCOCC2)C(C)(C)SSC1(C)C
B2: Compound No. 7 (peptide)
peptide: Propionyl-[dR][Pen]QTWQ[Pen][AEF][2Nal][Thp]K(Piv)N[Thp]-NH2
modifications: disulfide 2-7
SMILES: CCC(=O)N[C@H](CCCNC(=N)N)C(=O)N[C@@H]1C(=O)N[C@@H](CCC(N)=O)C(=O)N[C@@H]([C@@H](C)O)C(=O)N[C@@H](Cc2c[nH]c3ccccc23)C(=O)N[C@@H](CCC(N)=O)C(=O)N[C@H](C(=O)N[C@@H](Cc2ccc(OCCN)cc2)C(=O)N[C@@H](Cc2ccc3ccccc3c2)C(=O)NC2(C(=O)N[C@@H](CCCCNC(=O)C(C)(C)C)C(=O)N[C@@H](CC(N)=O)C(=O)NC3(C(N)=O)CCOCC3)CCOCC2)C(C)(C)SSC1(C)C
B3: Compound No. 6 (peptide)
peptide: Propionyl-[dR][Pen]QTWQ[Pen][AEF][2Nal][Thp]K(Tfa)N[Thp]-NH2
modifications: disulfide 2-7
SMILES: CCC(=O)N[C@H](CCCNC(=N)N)C(=O)N[C@@H]1C(=O)N[C@@H](CCC(N)=O)C(=O)N[C@@H]([C@@H](C)O)C(=O)N[C@@H](Cc2c[nH]c3ccccc23)C(=O)N[C@@H](CCC(N)=O)C(=O)N[C@H](C(=O)N[C@@H](Cc2ccc(OCCN)cc2)C(=O)N[C@@H](Cc2ccc3ccccc3c2)C(=O)NC2(C(=O)N[C@@H](CCCCNC(=O)C(F)(F)F)C(=O)N[C@@H](CC(N)=O)C(=O)NC3(C(N)=O)CCOCC3)CCOCC2)C(C)(C)SSC1(C)C
B4: Compound No. 4 (peptide)
peptide: Propionyl-[dR][Pen]QTWQ[Pen][Phe(4-OMe)][2Nal][Thp]EN[Thp]-NH2
modifications: disulfide 2-7
SMILES: CCC(=O)N[C@H](CCCNC(=N)N)C(=O)N[C@@H]1C(=O)N[C@@H](CCC(N)=O)C(=O)N[C@@H]([C@@H](C)O)C(=O)N[C@@H](Cc2c[nH]c3ccccc23)C(=O)N[C@@H](CCC(N)=O)C(=O)N[C@H](C(=O)N[C@@H](Cc2ccc(OC)cc2)C(=O)N[C@@H](Cc2ccc3ccccc3c2)C(=O)NC2(C(=O)N[C@@H](CCC(=O)O)C(=O)N[C@@H](CC(N)=O)C(=O)NC3(C(N)=O)CCOCC3)CCOCC2)C(C)(C)SSC1(C)C
B5: Compound No. 5 (peptide)
peptide: {Propanoyl(3,3,3-F3)}-[dR][Pen]QTWQ[Pen][AEF][2Nal][Thp]EN[Thp]-NH2
modifications: disulfide 2-7
SMILES: C[C@@H](O)[C@@H]1NC(=O)[C@H](CCC(N)=O)NC(=O)[C@@H](NC(=O)[C@@H](CCCNC(=N)N)NC(=O)CC(F)(F)F)C(C)(C)SSC(C)(C)[C@@H](C(=O)N[C@@H](Cc2ccc(OCCN)cc2)C(=O)N[C@@H](Cc2ccc3ccccc3c2)C(=O)NC2(C(=O)N[C@@H](CCC(=O)O)C(=O)N[C@@H](CC(N)=O)C(=O)NC3(C(N)=O)CCOCC3)CCOCC2)NC(=O)[C@H](CCC(N)=O)NC(=O)[C@H](Cc2c[nH]c3ccccc23)NC1=O
B6: Compound No. 75 (peptide)
peptide: Ac-[Pen]NT[Trp(7-Me)]K(Ac)[Pen][AEF][2Nal][αMeK]K(Ac)N[Thp]-NH2
modifications: disulfide 1-6
SMILES: CC(=O)NCCCC[C@@H]1NC(=O)[C@H](Cc2c[nH]c3c(C)cccc23)NC(=O)[C@H]([C@@H](C)O)NC(=O)[C@H](CC(N)=O)NC(=O)[C@@H](NC(C)=O)C(C)(C)SSC(C)(C)[C@@H](C(=O)N[C@@H](Cc2ccc(OCCN)cc2)C(=O)N[C@@H](Cc2ccc3ccccc3c2)C(=O)N[C@@](C)(CCCCN)C(=O)N[C@@H](CCCCNC(C)=O)C(=O)N[C@@H](CC(N)=O)C(=O)NC2(C(N)=O)CCOCC2)NC1=O
B7: Compound No. 111 (peptide)
peptide: Ac-[dR][Pen]NT[Trp(7-Me)]K(Ac)[Pen][AEF][2Nal][Thp]K(Ac)N[αMeF]-NH2
modifications: disulfide 2-7
SMILES: CC(=O)NCCCC[C@@H]1NC(=O)[C@H](Cc2c[nH]c3c(C)cccc23)NC(=O)[C@H]([C@@H](C)O)NC(=O)[C@H](CC(N)=O)NC(=O)[C@@H](NC(=O)[C@@H](CCCNC(=N)N)NC(C)=O)C(C)(C)SSC(C)(C)[C@@H](C(=O)N[C@@H](Cc2ccc(OCCN)cc2)C(=O)N[C@@H](Cc2ccc3ccccc3c2)C(=O)NC2(C(=O)N[C@@H](CCCCNC(C)=O)C(=O)N[C@@H](CC(N)=O)C(=O)N[C@@](C)(Cc3ccccc3)C(N)=O)CCOCC2)NC1=O
B8: Compound No. 8 (peptide)
peptide: Propionyl-[dR][Pen]QTWQ[Pen][AEF][2Nal][Thp]EN[NMeβAla]-NH2
modifications: disulfide 2-7
SMILES: CCC(=O)N[C@H](CCCNC(=N)N)C(=O)N[C@@H]1C(=O)N[C@@H](CCC(N)=O)C(=O)N[C@@H]([C@@H](C)O)C(=O)N[C@@H](Cc2c[nH]c3ccccc23)C(=O)N[C@@H](CCC(N)=O)C(=O)N[C@H](C(=O)N[C@@H](Cc2ccc(OCCN)cc2)C(=O)N[C@@H](Cc2ccc3ccccc3c2)C(=O)NC2(C(=O)N[C@@H](CCC(=O)O)C(=O)N[C@@H](CC(N)=O)C(=O)N(C)CCC(N)=O)CCOCC2)C(C)(C)SSC1(C)C
B9: Compound No. 10 (peptide)
peptide: Propionyl-[dR][Pen]QTWQ[Pen][AEF][2Nal][Thp]EN[Thp]-NH2
modifications: disulfide 2-7
SMILES: CCC(=O)N[C@H](CCCNC(=N)N)C(=O)N[C@@H]1C(=O)N[C@@H](CCC(N)=O)C(=O)N[C@@H]([C@@H](C)O)C(=O)N[C@@H](Cc2c[nH]c3ccccc23)C(=O)N[C@@H](CCC(N)=O)C(=O)N[C@H](C(=O)N[C@@H](Cc2ccc(OCCN)cc2)C(=O)N[C@@H](Cc2ccc3ccccc3c2)C(=O)NC2(C(=O)N[C@@H](CCC(=O)O)C(=O)N[C@@H](CC(N)=O)C(=O)NC3(C(N)=O)CCOCC3)CCOCC2)C(C)(C)SSC1(C)C

*1 amine or outer side, *2 acyl side, *3 side chain or, on linkers, in order; H or OH if unused. Bridges are numbered along the chain shown (N, C = ends). Where no end group is shown, it is not given here. [ ]: non-standard residue; d: D form. The star is where a group is joined. Phe(4-OMe) = COc1ccc(C[C@H](N[*:1])C(=O)[*:2])cc1; Trp(7-Me) = Cc1cccc2c(C[C@H](N)C(=O)O)c[nH]c12; 2Nal = N[C@@H](Cc1ccc2ccccc2c1)C(=O)O; Propanoyl(3,3,3-F3) = O=C(CC(F)(F)F)*; AEF = NCCOc1ccc(C[C@H](N)C(=O)O)cc1; αMeF = C[C@](N)(Cc1ccccc1)C(=O)O; NMeβAla = CN(CCC(=O)[*:2])[*:1]; Pen = CC(C)(S)[C@H](N)C(=O)O; αMeK = C[C@](N)(CCCCN)C(=O)O; Thp = NC1(C(=O)O)CCOCC1; Abu = CC[C@H](N)C(=O)O; Piv = CC(C)(C)C(=O)*; Propionyl = CCC(=O)*; Tfa = O=C(C(F)(F)F)*

For one experiment, the target named is T1, human IL-23R (interleukin-23 receptor) (human, UniProt Q5VWK5 24-629).
T1 sequence (looked up): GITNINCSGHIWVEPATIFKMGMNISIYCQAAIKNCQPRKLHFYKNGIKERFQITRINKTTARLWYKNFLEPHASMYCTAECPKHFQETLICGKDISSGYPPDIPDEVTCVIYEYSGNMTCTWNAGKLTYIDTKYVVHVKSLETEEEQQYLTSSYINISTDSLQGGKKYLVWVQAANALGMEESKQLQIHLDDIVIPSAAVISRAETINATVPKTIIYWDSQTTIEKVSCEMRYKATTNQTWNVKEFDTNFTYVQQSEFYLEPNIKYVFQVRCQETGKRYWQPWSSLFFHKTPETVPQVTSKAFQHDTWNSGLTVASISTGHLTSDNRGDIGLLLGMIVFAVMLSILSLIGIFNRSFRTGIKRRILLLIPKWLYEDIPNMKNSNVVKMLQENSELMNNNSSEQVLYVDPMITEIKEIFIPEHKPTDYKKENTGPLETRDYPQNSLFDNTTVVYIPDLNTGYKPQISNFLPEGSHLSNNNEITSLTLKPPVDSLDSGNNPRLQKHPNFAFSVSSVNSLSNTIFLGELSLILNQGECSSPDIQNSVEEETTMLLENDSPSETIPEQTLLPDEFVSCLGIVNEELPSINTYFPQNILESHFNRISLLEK
Put plainly: cell-based or functional assay.
B1: the “PBMC pSTAT3 IC50 (nM)” value was found to be 40 nM and the “pStat3 HTRF (nM), IC50, DB cells IL23R pSTAT3 cell assay” value (“pStat3 HTRF (nM), IC50” below) came out at 2.31 nM.
For B2, the “PBMC pSTAT3 IC50 (nM)” value turned out to be 8.6 nM and the “pStat3 HTRF (nM), IC50” value came out at 3.87 nM.
On to Ac-[Abu]QT[Trp(7-Me)]K(Ac)C[AEF][2Nal][αMeK]K(Ac)N[dK]-NH2 (thioether 1-6) [Compound No. 64], for which the “pStat3 HTRF (nM), IC50” value came out at 0.889 nM.
On the same count and under the same terms, as for Ac-[Abu]QT[Trp(7-Me)]K(Ac)C[AEF][2Nal][αMeK]K(Ac)N[αMeF]-NH2 (thioether 1-6) [Compound No. 66], the figure is 2.27 nM.
As for B3, the “PBMC pSTAT3 IC50 (nM)” value came to 8.6 nM and the “pStat3 HTRF (nM), IC50” value is 2.46 nM.
As to B4, the “pStat3 HTRF (nM), IC50” value is 4.17 nM.
Ac-[Abu]QT[Trp(7-Me)]K(Ac)C[AEF][2Nal][αMeK]K(Ac)N[dL]-NH2 (thioether 1-6) [Compound No. 65]: the “pStat3 HTRF (nM), IC50” value is 0.966 nM.
B5: the “PBMC pSTAT3 IC50 (nM)” value came to 4.7 nM and the “pStat3 HTRF (nM), IC50” value is 2.94 nM.
For [dR][Pen]QTWQ[Pen][AEF][2Nal][Thp]EN[Thp]-NH2 (disulfide 2-7; not fully specified (N-terminus)) [Compound No. 9], the “PBMC pSTAT3 IC50 (nM)” value turned out to be 29 nM and the “pStat3 HTRF (nM), IC50” value is 3.12 nM.
B6: the “PBMC pSTAT3 IC50 (nM)” value was determined as 8.9 nM and the “pStat3 HTRF (nM), IC50” value was determined as 0.787 nM.
Turning to B7, the “pStat3 HTRF (nM), IC50” value worked out at 1.29 nM.
As to B8, the “pStat3 HTRF (nM), IC50” value was 24.6 nM.
In the case of B9, the “PBMC pSTAT3 IC50 (nM)” value came to 4.6 nM and the “pStat3 HTRF (nM), IC50” value is 4.16 nM.

Another experiment deals with T1, human IL-23R (interleukin-23 receptor). Put plainly: cell-based or functional assay. This is another data set of the same source.
For B1, the “NK Cell Assay (nM), IC50, IFN-gamma after IL-23 and IL-18” value (shortened to “NK Cell Assay (nM), IC50, IFN-gamma”) was 20.1 nM.
On the same count and under the same terms, as for B2, the figure is 12.6 nM.
Consider Ac-[Abu]QT[Trp(7-Me)]K(Ac)C[AEF][2Nal][αMeK]K(Ac)N[dK]-NH2 (thioether 1-6) [Compound No. 64], for which the “NK Cell Assay (nM), IC50, IFN-gamma” value was determined as 5.44 nM.
Still for that read-out and setting: as for Ac-[Abu]QT[Trp(7-Me)]K(Ac)C[AEF][2Nal][αMeK]K(Ac)N[αMeF]-NH2 (thioether 1-6) [Compound No. 66], the figure is 13.1 nM; as for B3, 16.8 nM.
Consider B4, for which the “NK Cell Assay (nM), IC50, IFN-gamma” value was 32.1 nM.
Consider Ac-[Abu]QT[Trp(7-Me)]K(Ac)C[AEF][2Nal][αMeK]K(Ac)N[dL]-NH2 (thioether 1-6) [Compound No. 65], for which the “NK Cell Assay (nM), IC50, IFN-gamma” value is 6.03 nM.
Take B5: the “NK Cell Assay (nM), IC50, IFN-gamma” value is 10.3 nM.
Still for that read-out and setting: as for [dR][Pen]QTWQ[Pen][AEF][2Nal][Thp]EN[Thp]-NH2 (disulfide 2-7; not fully specified (N-terminus)) [Compound No. 9], the figure is 11.6 nM; as for B6, 2.69 nM; as for B7, 6.51 nM.
On the same count and under the same terms, as for B8, the figure is 72.3 nM; as for B9, 8.29 nM.

Source of the values: patent publication US20220402983A1 (Janssen / Centocor, published 2022).
